Reference: patent US20250388680A1 (KITE PHARMA, published 2025)

Tests used:
huIgG1 huCLL1 [1] = biological target: T1, huIgG1 huCLL1 (human, UniProt Q5QGZ9 65-265, limits assumed); assay: Octet BLI, mAb captured on FAB2G biosensor, antigen in solution
T1 construct: not shown: human IgG1 part
T1 sequence: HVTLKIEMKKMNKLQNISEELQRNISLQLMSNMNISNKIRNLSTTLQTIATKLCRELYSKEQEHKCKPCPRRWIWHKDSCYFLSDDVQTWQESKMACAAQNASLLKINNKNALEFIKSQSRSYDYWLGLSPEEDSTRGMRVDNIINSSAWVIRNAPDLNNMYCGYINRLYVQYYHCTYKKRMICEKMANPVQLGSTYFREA
Description: (§1) Octet Off-Rate Ranking Assay: Alternate binding assay was conducted with the recombinant antibodies confirming specific binding to CLL1 without binding to CLEC12B. Briefly, purified mAbs were individually captured on FAB2G anti-human Fab biosensors. The mAb-captured biosensors were dipped in wells containing antigen and the binding response was measured. Biosensors were later dipped in buffer wells to observe the dissociation of bound antigen from captured mAb and were regenerated and similar binding kinetic assays were performed for subsequent antigens. The binding kinetics of fifteen mAbs were illustrated in Table 2.

muIgG2a huCLL1 [2] = biological target: T2, muIgG2a huCLL1 (human, UniProt Q5QGZ9 65-265, limits assumed); assay: as above
T2 construct: It may be the same construct as muIgG2a monoFc huCLL1 (+) of the ELISA; also called huCLL1.mIgG2a; not shown: mouse IgG2a part
T2 sequence: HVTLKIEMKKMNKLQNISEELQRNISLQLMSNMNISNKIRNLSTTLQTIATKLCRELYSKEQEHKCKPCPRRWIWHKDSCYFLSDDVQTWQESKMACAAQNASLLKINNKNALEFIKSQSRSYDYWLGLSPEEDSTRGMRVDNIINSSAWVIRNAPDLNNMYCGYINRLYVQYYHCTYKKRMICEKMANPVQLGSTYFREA
Description: as §1

[3] = biological target: T3, huCLEC12B (Acro Biosystems) (human, UniProt Q2HXU8 65-276, limits assumed); assay: Octet BLI, mAb captured on FAB2G anti-human Fab biosensors
T3 construct: Bought protein
T3 sequence (looked up): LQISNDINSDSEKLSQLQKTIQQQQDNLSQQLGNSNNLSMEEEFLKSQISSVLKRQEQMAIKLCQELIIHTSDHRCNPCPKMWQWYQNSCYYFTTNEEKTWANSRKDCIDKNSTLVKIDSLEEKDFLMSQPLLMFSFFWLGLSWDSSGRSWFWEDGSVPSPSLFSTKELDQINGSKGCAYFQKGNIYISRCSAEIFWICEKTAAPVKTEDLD
Description: as §1

[4] = biological target: T4, muIgG2a monoFc huCLL1 (+) (human); assay: ELISA, plate coated with antigen 1 ug/mL; antibody 10.00 ug/mL in well
T4 construct: ELISA coating antigen
Description: ELISA Validation: Antibodies identified by the Beacon screen were made recombinantly and validated for binding to CLL1. High-binding ELISA plate was coated with muIgG2a monoFc huCLL1 (+) (1 μg/mL) overnight at 4° C. After removal of the antigen, the wells were blocked with 2% BSA in 1×PBS for 1 hour. The BSA was then removed and the primary antibody was added to the wells in 1×PBS solution, incubated at RT for 1 hour. The wells were washed four times with 1×PBS. HRP conjugated secondary antibody was added in blocking solution, and was incubated at RT for 45 minutes. The wells were washed five times with 1×PBS. TMB substrate was added, followed by stop solution. The plates were read at 450 nm.

huIgG1 huCLL1 [5] = biological target: T1, huIgG1 huCLL1; assay: Octet BLI, mAb captured on FAB2G biosensor, antigen in solution; antigen huCLL1 fused to huIgG1 Fc
Description: as §1

muIgG2a huCLL1 [6] = biological target: T2, muIgG2a huCLL1; assay: Octet BLI, mAb captured on FAB2G biosensor, antigen in solution; antigen huCLL1 fused to muIgG2a Fc
Description: as §1

B1: D2D88607-15321 (antibody, V domains shown)
VH: EVQLVESGGGLVQPGGSLRLSCAASGFTFSFNDMNWVRQAPGKGLEWVSTISGSGGSTYYADSVKGRFTISRDNSKNTLYLQMNSLRAEDTAVYYCAVTGLYYYYYMDVWGKGTTVTVSS
VL: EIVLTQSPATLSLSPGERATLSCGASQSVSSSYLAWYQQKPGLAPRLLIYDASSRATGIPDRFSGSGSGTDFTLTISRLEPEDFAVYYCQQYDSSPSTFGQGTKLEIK
notes: also called mAb_018
- Kd (huIgG1 huCLL1 [1]): 29.4 nM
- t½ (huIgG1 huCLL1 [1]): 9.1 min
- Kd (muIgG2a huCLL1 [2]): 4.29 nM
- t½ (muIgG2a huCLL1 [2]): 83.2 min
- binding result [3]: no binding
- OD 450 nm [4]: 1.38 OD

B2: D2AD88607-7048 (antibody, V domains shown)
VH: EVQLVESGGGLVQPGGSLRLSCAASGFTFSSYDMHWVRQATGKGLEWVSAIGTAGDKYYLASVKGRFTISRENAKNSLYLQMNSLRAGDTAVYYCVRDSLTGPTVTPYMDVWGKGTTVTVSS
VL: EIVLTQSPDFQSVTPKEKVTITCRASQSIGSGLHWYQQKPDQSPKLLIIYASQSISGVPSRFSGSGSGTDFTLTINSLEAEDAAAYYCHQSSSLPYTFGQGTKLEIK
notes: also called mAb_042
- Kd (huIgG1 huCLL1 [1]): 81.1 nM
- t½ (huIgG1 huCLL1 [1]): 0.3 min
- Kd (muIgG2a huCLL1 [2]): 2.98 nM
- t½ (muIgG2a huCLL1 [2]): 7.7 min
- binding result [3]: no binding
- OD 450 nm [4]: 1.57 OD

B3: D2AD89041-10444 (antibody, V domains shown)
VH: EVQLLESGGGLVQPGGSLRLSCAASGFTFNNYVMAWVRQVPGKGLEWVSGISGSGLITSYAASVKDRFTISRDNSNNTVYLQMKSLRAEDTAVYFCAKEPHVLLDDYMDVWGKGTTVTVSS
VL: EIVLTQSPATLSLSPGERATLSCGASQSVTSSYLAWYQQKPGLAPRLLIYDASNRATGIPDRFSGSGSGTDFTLTISRLEPEDFAVYYCQQYGRSLTFGGGTKVEIK
notes: also called mAb_049
- t½ (huIgG1 huCLL1 [1]): 0 min
- t½ (muIgG2a huCLL1 [2]): 5.4 min
- Kd (huIgG1 huCLL1 [5]): 1120 nM
- binding result [3]: no binding
- Kd (muIgG2a huCLL1 [6]): 3.46 nM
- OD 450 nm [4]: 0.205 OD

B4: D2D88607-14083 (antibody, V domains shown)
VH: EVQLLESGGDLVQPGGSLRLSCAASGFTFSSYAMNWVRQAPGKGLEWVSAISGSGVFTYYADSVKGRFTISRDNSENTLYLQMNSLRAEDTAVYYCAKEMQQLIQGDLFDIWGQGTMVTVSS
VL: EIVLTQSPATLSLSPGERATLSCGASQSVSNNYLAWYQQKPGLAPRLLIYDASSRATGIPDRFSGSGSGTDFTLTISRLEPEDFAVYYCQQYGSSHTFGQGTKLEIK
notes: also called mAb_017
- Kd (huIgG1 huCLL1 [1]): 3.19 nM
- t½ (huIgG1 huCLL1 [1]): 18.6 min
- Kd (muIgG2a huCLL1 [2]): 0.374 nM
- t½ (muIgG2a huCLL1 [2]): 116 min
- binding result [3]: no binding

B5: D2D88607-9226 (antibody, V domains shown)
VH: QVQLQQWGAGLLKPSETLSLTCAVYGGSFSGYYWSWIRQPPGKGLEWIGEFNHSGGPNYNPSLKSRVTISTDTSNNQFSLKLSSVTAADTAVYYCARGTTGNYYYYMDVWGKGTTVTVSS
VL: AIQMTQSPSSLSASVGDRVTITCRASQGIRNDLGWYQQKPGKAPKLLIYAASSLQSGVPSRFSGSGSGTDFTLTISSLQPEDFATYYCLQDYIYPPTFGPGTKLEIK
notes: also called mAb_023
- Kd (huIgG1 huCLL1 [1]): 2.28 nM
- t½ (huIgG1 huCLL1 [1]): 16.5 min
- Kd (muIgG2a huCLL1 [2]): 0.347 nM
- t½ (muIgG2a huCLL1 [2]): 64.1 min
- binding result [3]: no binding
- OD 450 nm [4]: 1.75 OD

B6: D2AD88607-5141 (antibody, V domains shown)
VH: QVQLVESGGGVVQPGRSLRLSCAASGFTFSSYGMHWVRQAPGKGLEWVAIISYDGSDKYYADSVKGRFTISRDNSKNTLYLQMNSLRAEDTAVYYCARNYNYYMDVWGKGTTVTVSS
VL: EIVMTQSPATLSLSPGERATLSCRASQSVRSSYLSWYQQKPGQAPRLLIYGTSTRATGIPARFSGSGSGTDFTLTISSLQPEDFAVYYCQQDYNLPLTFGGGTKVEIK
notes: also called mAb_038
- Kd (huIgG1 huCLL1 [1]): 19.9 nM
- t½ (huIgG1 huCLL1 [1]): 2.3 min
- Kd (muIgG2a huCLL1 [2]): 0.766 nM
- t½ (muIgG2a huCLL1 [2]): 54.4 min
- binding result [3]: no binding
- OD 450 nm [4]: 2 OD
